# Experimental data reported in patent US9290794B2, “Mutant protease biosensors with enhanced detection characteristics” (PROMEGA CORPORATION, priority 2010, dated 2016).
# Tests used:
# Type in all cases: biochemical
# caspase-3 [1] = experiment: CBS-HT (cell-free expressed) immobilized to HaloTag ligand microtiter plate, caspase-3 cleavage
# Protocol: For immobilization to a plate (FIG. 18B), a microtiter plate was prepared containing HaloTag® ligand for immobilizing the CBS-HT fusion protein. Briefly, bicarbonate buffer pH 8.5 (100 μL), containing amine-PEG 2000-Cl alkane HaloTag® ligand (0.25 mM (final concentration; PBI 3961 and methoxy-PEG-NH2 (0.75 mM final concentration) were added to wells of a NHS microtiter plate and incubated for 1 hr at room temperature. The wells were then washed 3 times with PBS containing 0.05% Tween-20. After washing, 50 mM ethanolamine was added, and the plates were incubated for 30 min at room temperature and washed again 3 times with PBS containing 0.05% Tween-20. The plate was then stored at 4° C. with PBS containing 0.05% Tween-20 in each well. For the assay, the wells were washed 3 times with 200 μl HPTB. 50 μl CBS-HT cell-free expression reaction (Example XI) was added to the wells, and incubated overnight at 4° C. Following incubation, the plate was washed 3 times with 200 μl PBSI (1×PBS with 0.05% IGEPAL). 100 μL E. coli lysate containing caspase-3 or C(3) lysis buffer (described above) were added and the plate was incubated for 60 min with mixing at room temperature. The wells were then washed with 100 μl PBSI. 100 μL HEPES pH 7.5 and 100 μl Bright-Glo Assay Reagent were added and luminescence was detected as previously described (Table 9).
# caspase-3 [2] = experiment: CBS-HT (cell-free expressed) immobilized to HaloLink resin, caspase-3 cleavage reaction
# Protocol: For immobilization to a resin (FIG. 18A), HaloLink resin (25% slurry, Promega Cat. No. G1912) was first equilibrated with HTPB Buffer (50 mM HEPES (pH 7.5), 150 mM NaCl, 1 mM DTT and 0.5 mM EDTA). Resin from one volume of slurry was collected by centrifugation (5 min at 1000×g), and the storage buffer was removed. The resin pellet was re-suspended in 2 volumes of HTPB and mixed. This process was repeated for a total of three HTPB washes. 100 μL of the CBS-HT fusion from Example XI (cell free expression reaction) was mixed with 25 μL washed resin (50% slurry in HTPB) and incubated overnight with mixing at 4° C. Incubation was continued at ambient temperature for 2 hrs. After incubation, the resin was washed to remove un-bound CBS. The resin was split into two 50 μl aliquots, and each aliquot was washed 3 times with HTPB. The final resin pellets were re-suspended in 50 μL HTPB.
# For the CBS caspase-3 cleavage reaction, 20 μl of the washed resin was mixed with 20 μL of either E. coli lysate containing caspase-3 or C(3) Lysis Buffer (as in Example XI) and incubated for 30 min at ambient temperature. 60 μl HEPES pH 7.5 was added to the samples, followed by the addition of 100 μl Bright-Glo Assay Reagent. Luminescence was detected as previously described (Table 8 and FIG. 19).
# caspase-3 [3] = experiment: Cell-free (wheat germ) expressed CBS-HT, caspase-3 cleavage reaction, luminescence; conditions: WG(HY), MIN. 5
# Protocol: The CBS variant 1A5 was cloned into the vector pFN19K HaloTag® (Promega Cat. No. G1841) to generate a CBS-HaloTag® (CBS-HT) fusion protein (SEQ ID NOs:71 and 72). 20 μl (8 μg) of the CBS-HT vector was added to 30 μl TnT® SP6 High-Yield Wheat Germ Expression System (Promega Cat. No. L3261) and incubated at 25° C. for 90 min.
# For the CBS-HT caspase-3 cleavage reaction, one volume of the expression reaction was incubated with an equal volume of either an E. coli lysate containing caspase-3 or C(3) Lysis Buffer (0.8× FastBreak (Promega Cat. No. V857A), 10 mM DTT, 0.1% CHAPS, 0.8 mg/mL Lysozyme, 3 U/μL RQ1 DNase (Promega Cat. No. M610A)) and incubated for 60 min at room temperature. The E. coli lysate containing caspase-3 was prepared from KRX cells overexpressing recombinant caspase-3. Briefly, KRX cells were transformed with pTS1k:caspase-3(T/S). A starter culture (50 mL, LB Broth) was inoculated from a single colony and grown for 17-22 hrs at 37° C. with shaking (275 rpm). The starter culture was diluted (1:50) into fresh media and growth was continued for an additional 3 hrs. The incubation temperature was then lowered to 25° C. and, after 15 min, expression of caspase-3 was initiated by addition of rhamnose (0.2% final concentration). After 2 hr, cells were collected by centrifugation, re-suspended in 50 mL C(3) Lysis Buffer and incubated at ambient temperature (i.e. 22-24° C.) for 10 min. The lysate was clarified by centrifugation (20,000×g for 20 min at 4° C.) and used as the Caspase-3 source.
# Cleavage of CBS-HT by Caspase-3 was detected in two different ways: by SDS-PAGE analysis and luminescence detection. […] After electrophoresis, CA-TAM labeled species were detected by fluorescent imaging (ex:532, Em:580; FIG. 17). For detection via luminescence, 40 μL of the cleavage reaction samples were added to 60 μL buffer (50 mM HEPES (pH 7.5) and 100 μL Bright-Glo assay reagent. Luminescence was detected as previously described (Table 7).
molecule,measurement,setting,value
"CBS-HT: CBS variant 1A5 fused to HaloTag, expressed in wheat germ extract (SEQ ID NOs:71 and 72) (protein) MAEIGTGFPFDPHYVEVLGERMHYVDVGPRDGTPVLFLHGNPTSSYVWRNIIPHVAPTHRCIAPDLIGMGKSDKPDLGYFFDDHVRFMDAFIEALGLEEVVLVIHDWGSALGFHWAKRNPERVKGIAFMEFIRPIPTWDEWPEFARETFQAFRTTDVGRKLIIDQNVFIEGTLPMGVVRPLTEVEMDHYREPFLNPVDREPLWRFPNELPIAGEPANIVALVEEYMDWLHQSPVPKLLFWGTPGVLIPPAEAARLAKSLPNCKAVDIGPGLNLLQEDNPDLIGSEIARWLSTLEISGEPTTEDLYFQSDNAIAMPGSTGKIVPLHAVKVVDPTTGKILGPNEPGELYFKGPMIMKGYYNNEEATKAIIDNDGWLRSGDIAYYDNDGHFYIVDRLKSLIKYKGYQVAPAEIEGILLQHPYIVDAGVTGIPDEAAGELPAAGVVVQTGKYLNEQIVQDYVASQVSIAKWLRGGVKFLDEIPKGSTGKIDRKVLRQMLEKHTNGSDEVDGSLKNILYGPEPFYPLEDGTAGEQMFDALSRYAAIPGCIALTNAHTKENVLYEEFLKLSCRLAESFKKYGLKQNDTIAVCSENSLQFFLPVIASLYLGIIVAPVNDKYIERELIHSLGIVKPRIVFCSKNTFQKVLNVKSKLKSIETIIILDLNEDLGGYQCLNNFISQNSDSNLDVKKFKPYSFNRDDQVASIMFSSGTTGLPKGVMLTHKNIVARFSIAKDPTFGNAINPTSAILTVIPFHHGFGMMTTLGYFTCGFRVVLMHTFEEKLFLQSLQDYKVESTLLVPTLMAFLAKSALVEKYDLSHLKEIASGGAPLSKEIGEMVKKRFKLNFVRQGYGLTETTSAVLITPKGV",BASAL luminescence,caspase-3 [1]; MIN. 0,66
same,INDUCED luminescence,caspase-3 [1]; MIN. 0,"1,226"
same,RESPONSE,caspase-3 [1]; MIN. 0,19
same,BASAL luminescence,caspase-3 [1]; MIN. 1,16
same,INDUCED luminescence,caspase-3 [1]; MIN. 1,"1,636"
same,RESPONSE,caspase-3 [1]; MIN. 1,102
same,BASAL luminescence,caspase-3 [1]; MIN. 2,106
same,INDUCED luminescence,caspase-3 [1]; MIN. 2,"2,267"
same,RESPONSE,caspase-3 [1]; MIN. 2,21
same,BASAL luminescence,caspase-3 [1]; MIN. 3,66
same,INDUCED luminescence,caspase-3 [1]; MIN. 3,"2,147"
same,RESPONSE,caspase-3 [1]; MIN. 3,33
same,BASAL luminescence,caspase-3 [1]; MIN. 4,126
same,INDUCED luminescence,caspase-3 [1]; MIN. 4,"2,297"
same,RESPONSE,caspase-3 [1]; MIN. 4,18
same,BASAL luminescence,caspase-3 [1]; MIN. 5,126
same,INDUCED luminescence,caspase-3 [1]; MIN. 5,"2,857"
same,RESPONSE,caspase-3 [1]; MIN. 5,23
same,BASAL luminescence,caspase-3 [1]; MIN. 6,76
same,INDUCED luminescence,caspase-3 [1]; MIN. 6,"3,107"
same,RESPONSE,caspase-3 [1]; MIN. 6,41
same,BASAL luminescence,caspase-3 [1]; MIN. 7,56
same,INDUCED luminescence,caspase-3 [1]; MIN. 7,"3,377"
same,RESPONSE,caspase-3 [1]; MIN. 7,60
same,BASAL luminescence,caspase-3 [1]; MIN. 8,136
same,INDUCED luminescence,caspase-3 [1]; MIN. 8,"3,037"
same,RESPONSE,caspase-3 [1]; MIN. 8,22
same,BASAL luminescence,caspase-3 [1]; MIN. 9,116
same,INDUCED luminescence,caspase-3 [1]; MIN. 9,"3,667"
same,RESPONSE,caspase-3 [1]; MIN. 9,32
same,BASAL luminescence,caspase-3 [2]; sample AS,"29,553"
same,INDUCED luminescence,caspase-3 [2]; sample AS,"5,162,108"
same,RESPONSE,caspase-3 [2]; sample AS,175
same,BASAL luminescence,caspase-3 [2]; sample FT,"3,170"
same,INDUCED luminescence,caspase-3 [2]; sample FT,"232,117"
same,RESPONSE,caspase-3 [2]; sample FT,73
same,BASAL luminescence,caspase-3 [2]; sample RESIN,"11,219"
same,INDUCED luminescence,caspase-3 [2]; sample RESIN,"1,635,259"
same,RESPONSE,caspase-3 [2]; sample RESIN,146
same,RESPONSE,caspase-3 [3],441
same,BASAL luminescence,caspase-3 [3]; C(3) Lysis Buffer,"10,494"
same,INDUCED luminescence,caspase-3 [3]; E. coli lysate containing caspase-3,"4,626,173"
